T1: hStn1 (Homo sapiens, UniProt Q9H668 1-368)
T1 sequence: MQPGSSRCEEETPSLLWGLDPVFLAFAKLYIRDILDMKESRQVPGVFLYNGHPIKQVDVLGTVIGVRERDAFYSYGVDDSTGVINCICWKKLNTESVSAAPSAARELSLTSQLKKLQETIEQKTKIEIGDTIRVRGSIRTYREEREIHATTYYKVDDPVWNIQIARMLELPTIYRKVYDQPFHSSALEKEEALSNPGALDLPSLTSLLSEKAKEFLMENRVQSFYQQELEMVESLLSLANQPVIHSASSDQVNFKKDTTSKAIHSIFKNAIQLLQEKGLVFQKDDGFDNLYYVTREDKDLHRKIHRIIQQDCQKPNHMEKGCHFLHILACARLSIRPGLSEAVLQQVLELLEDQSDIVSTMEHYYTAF

T2: hTen1 (Homo sapiens, UniProt Q86WV5 1-123)
T2 sequence: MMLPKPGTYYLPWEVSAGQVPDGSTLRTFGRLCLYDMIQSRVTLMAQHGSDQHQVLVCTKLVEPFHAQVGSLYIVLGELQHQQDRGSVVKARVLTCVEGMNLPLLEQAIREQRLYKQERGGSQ

T3: human Stn1, full length, wild type (human, UniProt Q9H668 1-368)
T3 construct: human Stn1 (hStn1), subunit of the human CST complex, full length; The methods describe the his-MBP tag for hStn1N only and say that full-length hStn1 was overexpressed and purified by the same procedure; also called hStn1; hStn1(WT); not shown: His (by 'the same procedure' as hStn1N), N-terminal, cleaved; MBP (by 'the same procedure' as hStn1N), N-terminal, cleaved
T3 sequence (looked up): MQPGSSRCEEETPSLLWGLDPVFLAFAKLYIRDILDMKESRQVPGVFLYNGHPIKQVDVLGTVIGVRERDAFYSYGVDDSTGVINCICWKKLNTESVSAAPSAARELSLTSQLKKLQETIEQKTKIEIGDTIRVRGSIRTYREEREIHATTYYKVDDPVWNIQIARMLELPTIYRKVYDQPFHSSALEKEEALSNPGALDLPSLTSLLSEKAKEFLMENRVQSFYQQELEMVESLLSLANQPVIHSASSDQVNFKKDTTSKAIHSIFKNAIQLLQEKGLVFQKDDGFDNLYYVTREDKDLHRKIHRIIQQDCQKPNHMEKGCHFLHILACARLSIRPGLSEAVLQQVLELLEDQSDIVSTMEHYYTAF


Key:
hStn1 = target: T1, hStn1; experiment: fluorescence polarization; FP: 100 mM NaCl, 5 mM MgCl2, 1 mM DTT, 5% glycerol, 1 mg/mL BSA, 2.5 nM 6-FAM DNA, room temperature; pH not stated; settings: protein: recombinant; tags: none stated after TEV cleavage (his-MBP fusion removed); single strand
hTen1 = target: T2, hTen1; experiment: fluorescence polarization; not detected; FP: 100 mM NaCl, 5 mM MgCl2, 1 mM DTT, 5% glycerol, 1 mg/mL BSA, 2.5 nM 6-FAM DNA, room temperature; pH not stated; settings: protein: recombinant; single strand
[1] = target: T3, human Stn1, full length, wild type; experiment: ITC; MicroCal iTC200; hTen1 at 125 µM injected into the cell with hStn1 at 12 µM; 20°C; 300 mM KCl, 25 mM Tris-HCl pH 7.5, 1 mM DTT, 5% glycerol; 2.47 µL injections; settings: both partners purified

Kd [1] [nM] | Binder | Kd (hStn1) [nM] | other results
 | GTTACGAAATACGGACAC (ssDNA) [rand18] | ~200 | 
 | TTAGGGTTAGGGTTAGGGTTAGGGTTAGGG (ssDNA) [tel30] |  | binding result (hTen1): no binding
 | TTAGGGTTAGGGTTAGGG (ssDNA) [tel18] | ~200 | 
6.3 | human Ten1, full length, wild type (natural protein, UniProt Q86WV5 1-123, looked up, human Ten1 (hTen1), subunit of the human CST complex, full length; Purification is described only for the complex with hStn1N (cells mixed before lysis; tags cleaved by TEV); also called hTen1; hTen1(WT); source: E. coli BL21-CodonPlus(DE3) RIPL, purified; not shown: His, N-terminal, cleaved) MMLPKPGTYYLPWEVSAGQVPDGSTLRTFGRLCLYDMIQSRVTLMAQHGSDQHQVLVCTKLVEPFHAQVGSLYIVLGELQHQQDRGSVVKARVLTCVEGMNLPLLEQAIREQRLYKQERGGSQ |  | 
13 | human Ten1 (R119Q), full length (natural protein, UniProt Q86WV5 1-123, looked up, human Ten1, full length, with R119Q; also called hTen1(R119Q); source: purified (pure, homogeneous)) MMLPKPGTYYLPWEVSAGQVPDGSTLRTFGRLCLYDMIQSRVTLMAQHGSDQHQVLVCTKLVEPFHAQVGSLYIVLGELQHQQDRGSVVKARVLTCVEGMNLPLLEQAIREQRLYKQEQGGSQ |  | 
33 | human Ten1 (R27Q), full length (natural protein, UniProt Q86WV5 1-123, looked up, human Ten1, full length, with R27Q; also called hTen1(R27Q); source: purified (pure, homogeneous)) MMLPKPGTYYLPWEVSAGQVPDGSTLQTFGRLCLYDMIQSRVTLMAQHGSDQHQVLVCTKLVEPFHAQVGSLYIVLGELQHQQDRGSVVKARVLTCVEGMNLPLLEQAIREQRLYKQERGGSQ |  | 
14 | human Ten1 (Y115A), full length (natural protein, UniProt Q86WV5 1-123, looked up, human Ten1, full length, with Y115A; also called hTen1(Y115A); source: purified (pure, homogeneous)) MMLPKPGTYYLPWEVSAGQVPDGSTLRTFGRLCLYDMIQSRVTLMAQHGSDQHQVLVCTKLVEPFHAQVGSLYIVLGELQHQQDRGSVVKARVLTCVEGMNLPLLEQAIREQRLAKQERGGSQ |  | 
 | TTAGGGTTAGGG (ssDNA) [tel12] | ~1000 | 

Reference: article PMC3691326, “Structure of the Human Telomeric Stn1-Ten1 Capping Complex” (PLoS ONE, 2013)
